Experiments:
[1] = molecular target: T1, human VEGFA-121-His (human, UniProt P15692-9 27-147); assay: SPR Biacore T200, VEGFA-121-His captured via anti-His, antibody as analyte, 1:1 Langmuir
T1 construct: Captured on an anti-His antibody surface; P15692 is the canonical VEGF-A entry, and the 121 isoform is one of its splice forms; also called VEFGA-121-His; not shown: His tag
T1 sequence (looked up): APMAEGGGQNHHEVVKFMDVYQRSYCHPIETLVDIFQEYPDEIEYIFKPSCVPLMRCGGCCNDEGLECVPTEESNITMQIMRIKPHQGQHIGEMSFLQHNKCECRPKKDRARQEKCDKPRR
Method: Binding of indicated antibodies to human VEGFA-121 was investigated by surface plasmon resonance using a BIACORE® T200 instrument (GE Healthcare). Around 10000 (RU) of anti His antibody (1 μg/ml anti His antibody; Order Code: 28995056; GE Healthcare Bio-Sciences AB, Sweden) were coupled on a Series S CM5 chip (GE Healthcare BR-1005-30) at pH 5.0 by using an amine coupling kit supplied by the GE Healthcare. HBS-N (10 mM HEPES, 150 mM NaCl pH 7.4, GE Healthcare) was used as running buffer during the immobilization procedure. For the following kinetic characterization, sample and running buffer was PBS-T (10 mM phosphate buffered saline including 0.05% Tween20) at pH 7.4. The flow cell was set to 25° C.—and the sample block set to 12° C.—and primed with running buffer twice prior to kinetic characterization.
VEFGA-121-His was captured by injecting a 0.5 μg/ml solution for 30 sec at a flow of 5 μl/min. The association was measured by injection of the indicated antibodies in various concentrations in solution for 180 sec at a flow of 30 μl/min starting with 1000 nM in 1:3 serial dilutions. The dissociation phase was monitored for up to 600 sec and triggered by switching from the sample solution to running buffer. The surface was regenerated by 60 sec washing with a Glycine pH 1.5 solution at a flow rate of 30 μl/min. Bulk refractive index differences were corrected by subtracting the response obtained from a anti His antibody surface. Blank injections are also subtracted (=double referencing). For calculation of KD and other kinetic parameters the Langmuir 1:1 model was used.

[2] = molecular target: T2, human Ang-2-RBD-Fc (human, UniProt O15123 275-496, limits assumed); assay: SPR Biacore T200, apparent KD, antibody captured via anti-human F(ab')2, Ang2-RBD-Fc as analyte
T2 construct: domain: RBD; Used as analyte in solution; The KD is called apparent; not shown: Fc part
T2 sequence (looked up): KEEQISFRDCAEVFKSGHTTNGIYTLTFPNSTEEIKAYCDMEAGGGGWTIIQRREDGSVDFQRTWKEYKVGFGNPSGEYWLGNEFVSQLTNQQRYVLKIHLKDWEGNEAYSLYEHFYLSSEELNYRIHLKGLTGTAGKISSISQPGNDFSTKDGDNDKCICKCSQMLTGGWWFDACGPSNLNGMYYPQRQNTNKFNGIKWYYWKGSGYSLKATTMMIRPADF
Method: Binding of indicated antibodies to human Ang-2-RBD-Fc was investigated by surface plasmon resonance using a BIACORE® T200 instrument (GE Healthcare). Around 8000 (RU) of goat anti human F(ab′)₂ (10 μg/ml anti human F(ab)′₂; Order Code: 28958325; GE Healthcare Bio-Sciences AB, Sweden) were coupled on a Series S CM5 chip (GE Healthcare BR-1005-30) at pH 5.0 by using an amine coupling kit supplied by the GE Healthcare. HBS-N (10 mM HEPES, 150 mM NaCl pH 7.4, GE Healthcare) was used as running buffer during the immobilization procedure. For the following kinetic characterization, sample and running buffer was PBS-T (10 mM phosphate buffered saline including 0.05% Tween20) at pH 7.4. The flow cell was set to 25° C.—and the sample block set to 12° C.—and primed with running buffer twice prior to kinetic characterization.
The bispecific antibody was captured by injecting a 5 nM solution for 25 sec at a flow of 5 μl/min. The association was measured by injection of human Ang2-RBD-Fc in various concentrations in solution for 120 sec at a flow of 30 μl/min starting with 100 nM in 1:3 serial dilutions. The dissociation phase was monitored for up to 180 sec and triggered by switching from the sample solution to running buffer. The surface was regenerated by 60 sec washing with a Glycine pH 2.1 solution at a flow rate of 30 μl/min. Bulk refractive index differences were corrected by subtracting the response obtained from a goat anti human F(ab′)₂ surface. Blank injections are also subtracted (=double referencing). For calculation of apparent KD the Langmuir 1:1 model was used.

[3] = molecular target: T3, TWEAK (human, UniProt O43508 94-249, limits assumed); assay: SPR Biacore T200 25 C, apparent KD, TWEAK amine-coupled on C1 chip, antibody as analyte
T3 construct: The assay paragraph says only 'TWEAK'; also called human TWEAK; TNF-related weak inducer of apoptosis
T3 sequence (looked up): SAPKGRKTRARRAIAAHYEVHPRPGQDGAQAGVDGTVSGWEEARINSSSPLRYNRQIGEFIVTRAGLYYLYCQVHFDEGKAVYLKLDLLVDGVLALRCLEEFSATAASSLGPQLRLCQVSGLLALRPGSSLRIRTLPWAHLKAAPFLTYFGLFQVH

[4] = molecular target: T4, human IL17 (human, UniProt Q16552 24-155); assay: SPR Biacore T200 25 C, antibody captured via anti-human F(ab')2, human IL17 as analyte, 1:1 Langmuir
T4 construct: Used as analyte in solution; also called IL17-A
T4 sequence (looked up): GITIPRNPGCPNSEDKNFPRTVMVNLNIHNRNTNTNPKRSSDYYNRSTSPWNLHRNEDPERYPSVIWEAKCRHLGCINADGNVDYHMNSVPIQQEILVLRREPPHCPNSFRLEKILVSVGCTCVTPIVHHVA
Method: Around 6000 resonance units (RU) of the capturing system (15 μg/ml goat anti human F(ab′)2; Order Code: 28958325; GE Healthcare Bio-Sciences AB, Schweden) were coupled on a CM5 chip at pH 5.0 by using an amine coupling kit supplied by the GE Healthcare. The sample and system buffer was PBS-T (10 mM phosphate buffered saline including 0.05% Tween 20) pH 7.4. The bispecific antibody was captured by injecting a 50 nM solution for 90 sec at a flow of 10 μl/min. Association was measured by injection human IL17 in various concentrations in solution for 3 min at a flow of 30 μl/min starting with 50 nM in 1:1 serial dilutions. The dissociation phase was monitored for up to 10 min and triggered by switching from the sample solution to running buffer. The surface was regenerated twice by 60 sec wash with a 10 mM glycine pH 2.1 solution at a flow rate of 30 μl/min. Bulk refractive index differences were corrected by subtracting the response obtained from a goat anti human F(ab′)2 surface. Blank injections are also subtracted (=double referencing). For calculation of apparent KD and other kinetic parameters, the Langmuir 1:1 model was used.

Binder | Kd [1] [nM] | Kd [2] [nM] | Kd [3] [nM] | Kd [4] [nM]
Ang2VEGF_469 (bispecific antibody, human IgG1, kappa, The charged substitutions are in the crossed (VEGF) arm) heavy 1: not shown light 1: EVQLVESGGGLVQPGGSLRLSCAASGYTFTNYGMNWVRQAPGKGLEWVGWINTYTGEPTYAADFKRRFTFSLDTSKSTAYLQMNSLRAEDTAVYYCAKYPHYYGSSHWYFDVWGQGTLVTVSSASTKGPSVFPLAPSSKSTSGGTAALGCLVEDYFPEPVTVSWNSGALTSGVHTFPAVLQSSGLYSLSSVVTVPSSSLGTQTYICNVNHKPSNTKVDEKVEPKSC heavy 2: not shown light 2: QPGLTQPPSVSVAPGQTARITCGGNNIGSKSVHWYQQKPGQAPVLVVYDDSDRPSGIPERFSGSNSGNTATLTISRVEAGDEADYYCQVWDSSSDHYVFGTGTKVTVLRTVAAPSVFIFPPSDEQLKSGTASVVCLLNNFYPREAKVQWKVDNALQSGNSQESVTEQDSKDSTYSLSSTLTLSKADYEKHKVYACEVTHQGLSSPVTKSFNRGEC | 13 | 3 |  | 
Ang2VEGF_470 (bispecific antibody, human IgG1, kappa, The charged substitutions are in the crossed (VEGF) arm, with Q124E added in the Ang2 light chain) heavy 1: not shown light 1: EVQLVESGGGLVQPGGSLRLSCAASGYTFTNYGMNWVRQAPGKGLEWVGWINTYTGEPTYAADFKRRFTFSLDTSKSTAYLQMNSLRAEDTAVYYCAKYPHYYGSSHWYFDVWGQGTLVTVSSASTKGPSVFPLAPSSKSTSGGTAALGCLVEDYFPEPVTVSWNSGALTSGVHTFPAVLQSSGLYSLSSVVTVPSSSLGTQTYICNVNHKPSNTKVDEKVEPKSC heavy 2: not shown light 2: QPGLTQPPSVSVAPGQTARITCGGNNIGSKSVHWYQQKPGQAPVLVVYDDSDRPSGIPERFSGSNSGNTATLTISRVEAGDEADYYCQVWDSSSDHYVFGTGTKVTVLRTVAAPSVFIFPPSDEELKSGTASVVCLLNNFYPREAKVQWKVDNALQSGNSQESVTEQDSKDSTYSLSSTLTLSKADYEKHKVYACEVTHQGLSSPVTKSFNRGEC | 12 | 3 |  | 
TweakIL17_102 (bispecific antibody, human IgG4 S228P, kappa, also called TweakIL17_0102) heavy 1: DIQMTQSPSSVSASVGDRVTITCQASQNIYSNLAWYQQKPGKAPKLLIYTASYLASGVPSRFSGSGSGTDYTLTISSLQPEDFATYYCQTAYYNSRPDTVAFGGGTKVEIKRTVAAPSVFIFPPSDEQLKSGTASVVCLLNNFYPREAKVQWKVDNALQSGNSQESVTEQDSKDSTYSLSSTLTLSKADYEKHKVYACEVTHQGLSSPVTKSFNRGECPPCPPCPAPEFEGGPSVFLFPPKPKDTLMISRTPEVTCVVVDVSQEDPEVQFNWYVDGVEVHNAKTKPREEQFNSTYRVVSVLTVLHQDWLNGKEYKCKVSNKGLPSSIEKTISKAKGQPREPQVYTLPPCQEEMTKNQVSLWCLVKGFYPSDIAVEWESNGQPENNYKTTPPVLDSDGSFFLYSRLTVDKSRWQEGNVFSCSVMHEALHNHYTQKSLSLSL light 1: QVQLVQSGAEVKKPGSSVKVSCKASGFDFSTYYMSWVRQAPGQGLEWMGTVYVRQGTTYYASWLNGRVTITADESTSTAYMELSSLRSEDTAVYYCARGGYNYDDAFVIWGQGTLVTVSSASTKGPSVFPLAPCSRSTSESTAALGCLVKDYFPEPVTVSWNSGALTSGVHTFPAVLQSSGLYSLSSVVTVPSSSLGTKTYTCNVDHKPSNTKVDKRVESKYG heavy 2: EVQLVESGGGLVQPGGSLRLSCAASGFSLDSYGVHWVRQATGKGLEWVSVIWSDGTTTYNSALKSRFTISRENAKNSLYLQMNSLRAGDTAVYYCARDTHYRLYYYAMDYWGQGTTVTVSSASTKGPSVFPLAPCSRSTSESTAALGCLVEDYFPEPVTVSWNSGALTSGVHTFPAVLQSSGLYSLSSVVTVPSSSLGTKTYTCNVDHKPSNTKVDERVESKYGPPCPPCPAPEFEGGPSVFLFPPKPKDTLMISRTPEVTCVVVDVSQEDPEVQFNWYVDGVEVHNAKTKPREEQFNSTYRVVSVLTVLHQDWLNGKEYKCKVSNKGLPSSIEKTISKAKGQPREPQVCTLPPSQEEMTKNQVSLSCAVKGFYPSDIAVEWESNGQPENNYKTTPPVLDSDGSFFLVSRLTVDKSRWQEGNVFSCSVMHEALHNHYTQKSLSLSL light 2: DIVMTQSPLSLPVTPGEPASISCRSSQSLVHSNGDTYFHWYLQKPGQSPQLLIYKVSNRFSGVPDRFSGSGSGTDFTLKISRVEAEDVGVYYCSQTTHAPFTFGQGTKLEIKRTVAAPSVFIFPPSDKKLKSGTASVVCLLNNFYPREAKVQWKVDNALQSGNSQESVTEQDSKDSTYSLSSTLTLSKADYEKHKVYACEVTHQGLSSPVTKSFNRGEC |  |  | < 0.1 | 0.1

Source: patent US20170349669A1 (Hoffmann-La Roche, published 2017)
